Values of other authors, collected in article PMC3137898.
pKd: −log10 of the molar value.

Target: syntrophin PDZ (Mus musculus) (UniProt Q61234)
Sequence (Q61234 78-167): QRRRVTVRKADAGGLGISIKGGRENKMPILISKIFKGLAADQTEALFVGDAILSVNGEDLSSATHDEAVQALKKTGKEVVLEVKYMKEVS

neuronal nitric oxide synthase PDZ, sequence (P29476 14-102): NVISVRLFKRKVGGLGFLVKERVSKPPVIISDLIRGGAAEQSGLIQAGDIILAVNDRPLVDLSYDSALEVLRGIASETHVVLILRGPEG

For “neuronal nitric oxide synthase PDZ (from UniProt P29476)”, the pKd is listed as 6.22.
